In experiment [1] the target is T1, human serum albumin (human, UniProt P02768). As to the kind of experiment: SPR, pH 5.5.
Experiment [2] has as its target T1, human serum albumin. As to the kind of experiment: SPR, pH 7.4.
In experiment [3] the target is T2, human IL-17A (human).
T2 chain: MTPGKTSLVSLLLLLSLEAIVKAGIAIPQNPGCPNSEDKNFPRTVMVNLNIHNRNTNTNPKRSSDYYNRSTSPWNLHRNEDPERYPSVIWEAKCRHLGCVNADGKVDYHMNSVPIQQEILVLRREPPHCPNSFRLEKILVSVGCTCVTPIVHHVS
Nature of the experiment: SPR.

Another experiment deals with T3, IL-17E (human).
T3 chain: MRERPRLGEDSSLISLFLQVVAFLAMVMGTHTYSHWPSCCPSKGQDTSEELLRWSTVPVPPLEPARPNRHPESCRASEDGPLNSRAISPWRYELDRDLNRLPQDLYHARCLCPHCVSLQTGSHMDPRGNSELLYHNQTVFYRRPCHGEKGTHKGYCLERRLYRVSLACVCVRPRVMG
As to the kind of experiment: competition ELISA.

The target of another experiment is T4, IL-17B (human).
T4 chain: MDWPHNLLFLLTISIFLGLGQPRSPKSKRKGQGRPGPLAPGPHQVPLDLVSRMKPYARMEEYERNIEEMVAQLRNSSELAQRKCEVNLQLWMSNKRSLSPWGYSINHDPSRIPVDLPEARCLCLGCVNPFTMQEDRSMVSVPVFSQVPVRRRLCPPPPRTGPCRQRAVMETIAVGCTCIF
As to the kind of experiment: competition ELISA.

The next experiment concerns the target T5, IL-17F (human).
T5 chain: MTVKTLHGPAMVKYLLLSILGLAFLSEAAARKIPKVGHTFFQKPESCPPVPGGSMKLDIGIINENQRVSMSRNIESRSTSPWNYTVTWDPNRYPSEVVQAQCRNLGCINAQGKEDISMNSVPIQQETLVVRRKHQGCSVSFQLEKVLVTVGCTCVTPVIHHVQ
As to the kind of experiment: competition ELISA.

Experiment [4] concerns the target T2, human IL-17A. Nature of the experiment: SPR, direct setup.
For the next experiment, the target named is T6, IL-17C (human).
T6 chain: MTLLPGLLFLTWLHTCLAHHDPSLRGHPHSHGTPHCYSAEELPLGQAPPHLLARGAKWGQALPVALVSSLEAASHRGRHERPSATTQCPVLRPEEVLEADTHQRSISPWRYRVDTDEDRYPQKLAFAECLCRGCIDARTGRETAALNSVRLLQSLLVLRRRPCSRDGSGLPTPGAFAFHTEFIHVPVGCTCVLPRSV
As to the kind of experiment: competition ELISA.

For a further experiment, the target named is T7, IL-17D (human).
T7 chain: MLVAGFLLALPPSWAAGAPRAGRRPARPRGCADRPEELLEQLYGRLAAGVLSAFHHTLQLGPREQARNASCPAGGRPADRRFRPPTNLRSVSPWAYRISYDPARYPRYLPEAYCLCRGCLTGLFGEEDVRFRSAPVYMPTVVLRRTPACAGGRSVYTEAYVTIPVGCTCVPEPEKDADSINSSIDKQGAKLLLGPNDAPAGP
Nature of the experiment: competition.

A further experiment has as its target T8, cynomolgus IL-17A (cynomolgus).
T8 chain: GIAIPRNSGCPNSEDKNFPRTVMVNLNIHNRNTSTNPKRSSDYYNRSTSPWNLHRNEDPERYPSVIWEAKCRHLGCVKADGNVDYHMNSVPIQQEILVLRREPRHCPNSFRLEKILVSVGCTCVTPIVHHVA
As to the kind of experiment: SPR.

Experiment [5] deals with T2, human IL-17A. As to the kind of experiment: SPR, capture setup.

B1: A3 HSA arm (antibody)
chain 1: EVQLVESGGGLVQPGGSLRLSCAASGFSLSSNAMGWVRQAPGKGLEYIGIISVGGFTYYASWAKGRFTISRDNSKNTVYLQMNSLRAEDTATYFCARDRHGGDSSGAFYLWGQGTLVTVSSASTKGPSVFPLAPSSKSTSGGTAALGCLVKDYFPEPVTVSWNSGALTSGVHTFPAVLQSSGLYSLSSVVTVPSSSLGTQTYICNVNHKPSNTKVDKKVEPKSCGGGGSGGGGSDIQMTQSPSSLSASVGDRVTITCQASQTINYWLAWYQQKPGKAPKLLIYRASTLASGVPSRFSGSGSGTDFTLTISSLQPEDFATYYCQNYYYSTSRSYGFGGGTKLTVLGGGGGSGGGGSGGGGSGGGGSEVQLVESGGGLVQPGGSLRLSCAASGFSFSSDYWMCWVRQAPGKGLEWIGCIYAGDVDDTDYASWARGRFTISRDNSKNTVYLQMNSLRAEDTAVYYCARVDGFDITYFDLWGQGTLVTVSS
chain 2: DIQMTQSPSSLSASVGDRVTITCQSSESVYSNNQLSWYQQKPGQPPKLLIYDASDLASGVPSRFSGSGSGTDFTLTISSLQPEDFATYYCAGGFSSSSDTAFGGGTKLTVLGRTRTVAAPSVFIFPPSDEQLKSGTASVVCLLNNFYPREAKVQWKVDNALQSGNSQESVTEQDSKDSTYSLSSTLTLSKADYEKHKVYACEVTHQGLSSPVTKSFNRGECGGGGSGGGGSDIQMTQSPSSLSASVGDRVTINCQASESISSWLAWYQQKPGKRPKLLIYKASTLASGVPSRFSGSGSGTDYTLTISSLQPEDFATYYCQGYYLDSSVDDNVFGGGTKLTVLGGGGGSGGGGSGGGGSGGGGSEVQLVESGGGLVQPGGSLRLSCAASGIDFSTYGISWVRQAPGKGLEWIAYIYPDYGITDYASWVNGRFTISLDNAQNTVYLQMNSLRAEDTAVYYCARSGSYYSRGWGAHYFNLWGQGTLVTVSS
For B1, the Kd was 947 pM in the experiment with human serum albumin [1] and 1370 pM with human serum albumin [2].

B2: A3 IL-17A arm (antibody)
chain 1: B1 chain 1
chain 2: B1 chain 2
In the experiment with human IL-17A [3], B2 had a Kd of 1530 pM.

B3: A4 IL-17A arm (antibody)
chain 1: EVQLVESGGGLVQPGGSLRLSCAASGFSFSSDYWMCWVRQAPGKGLEWIGCIYAGDVDDTDYASWARGRFTISRDNSKNTVYLQMNSLRAEDTAVYYCARVDGFDITYFDLWGQGTLVTVSSASTKGPSVFPLAPSSKSTSGGTAALGCLVKDYFPEPVTVSWNSGALTSGVHTFPAVLQSSGLYSLSSVVTVPSSSLGTQTYICNVNHKPSNTKVDKKVEPKSCGGGGSGGGGSDIQMTQSPSSLSASVGDRVTITCQSSESVYSNNQLSWYQQKPGQPPKLLIYDASDLASGVPSRFSGSGSGTDFTLTISSLQPEDFATYYCAGGFSSSSDTAFGGGTKLTVLGGGGGSGGGGSGGGGSGGGGSEVQLVESGGGLVQPGGSLRLSCAASGFSLSSNAMGWVRQAPGKGLEYIGIISVGGFTYYASWAKGRFTISRDNSKNTVYLQMNSLRAEDTATYFCARDRHGGDSSGAFYLWGQGTLVTVSS
chain 2: DIQMTQSPSSLSASVGDRVTITCQASQTINYWLAWYQQKPGKAPKLLIYRASTLASGVPSRFSGSGSGTDFTLTISSLQPEDFATYYCQNYYYSTSRSYGFGGGTKLTVLGRTRTVAAPSVFIFPPSDEQLKSGTASVVCLLNNFYPREAKVQWKVDNALQSGNSQESVTEQDSKDSTYSLSSTLTLSKADYEKHKVYACEVTHQGLSSPVTKSFNRGECGGGGSGGGGSDIQMTQSPSSLSASVGDRVTINCQASESISSWLAWYQQKPGKRPKLLIYKASTLASGVPSRFSGSGSGTDYTLTISSLQPEDFATYYCQGYYLDSSVDDNVFGGGTKLTVLGGGGGSGGGGSGGGGSGGGGSEVQLVESGGGLVQPGGSLRLSCAASGIDFSTYGISWVRQAPGKGLEWIAYIYPDYGITDYASWVNGRFTISLDNAQNTVYLQMNSLRAEDTAVYYCARSGSYYSRGWGAHYFNLWGQGTLVTVSS
With B3, binding in the experiment with human IL-17A [3] was characterised by a dissociation constant (Kd) of 337 pM.

B4: A4 HSA arm (antibody)
chain 1: B3 chain 1
chain 2: B3 chain 2
Consider B4, for which the Kd with human serum albumin [1] was 1670 pM; with human serum albumin [2] it was 4790 pM.

B5: PRO571 (27-31-C04-sc01) (antibody)
chain: DIQMTQSPSSLSASVGDRVTITCQASESIYRYLSWYQQKPGKAPKLLIYLASTLTSGVPSRFSGSGSGTDFTLTISSLQPEDFATYYCQSNFGTASTTYYNTFGGGTKLTVLGGGGGSGGGGSGGGGSGGGGSEVQLVESGGGLVQPGGSLRLSCAASGFSFSGFYYMCWVRQAPGKGLEWIGCIDTGDGTTYYASWAKGRFTISRDNSKNTVYLQMNSLRAEDTAVYYCARDAAYGGYAYPAHGMDLWGQGTLVTVSS
For B5, the binding result with IL-17E, with IL-17B, with IL-17F, in the experiment with IL-17C and with IL-17D was “no binding” each time. Besides, the values for the Kd with human IL-17A [4], with cynomolgus IL-17A and with human IL-17A [5] were 40 pM, 33 pM and 120 pM, respectively.

B6: A1 (27-07-G02-sc01) (antibody)
chain: DIQMTQSPSSLSASVGDRVTITCQASQTINYWLAWYQQKPGKAPKLLIYRASTLASGVPSRFSGSGSGTDFTLTISSLQPEDFATYYCQNYYYSTSRSYGFGGGTKLTVLGGGGGSGGGGSGGGGSGGGGSEVQLVESGGGLVQPGGSLRLSCAASGFSFSSDYWMCWVRQAPGKGLEWIGCIYAGDVDDTDYASWARGRFTISRDNSKNTVYLQMNSLRAEDTAVYYCARVDGFDITYFDLWGQGTLVTVSS
As for B6, the binding result in the experiment with IL-17E, with IL-17B, with IL-17F, with IL-17C and with IL-17D was “no binding” throughout. The Kd came out at 140 pM with human IL-17A [4] and 900 pM with cynomolgus IL-17A.

Values taken from patent US20260217814 (published 2026).
